From US20230165981A1, “[161Tb]-BASED RADIOPEPTIDES” (priority 2021, published 2023)
“And” between values parts separate entries of the source, which are not always exact repeats. Identical values can stand only once. Like-named read-outs stand apart in the source and are kept apart here. Starred links: 1 amine or outer side, 2 acyl side, 3 side chain; linkers in the order of their positions; H or OH if unused. Positions of bridges follow the written chain, without caps; N, C: chain ends. Non-standard residues stand in square brackets, D forms with d. Residues, ends and D or L forms follow the SMILES beside them. *: point of attachment. DOTA = O=C(O)CN1CCN(CC(=O)O)CCN(CC(=O)*)CCN(CC(=O)O)CC1; X1 = NC(=O)Nc1ccc(CC(N[*:1])C(=O)[*:2])cc1; Phe(4-Cl) = N[CH](Cc1ccc(Cl)cc1)C(=O)O

What was measured:
AR42J tumors = test: Preclinical therapy study in AR42J tumor-bearing mice; type: in vivo
AR42J tumor-bearing mice [1] = conditions: 0.2 nmol/mouse
Experimental: All applicable international, national, and/or institutional guidelines for the care and use of animals were followed. In particular, all animal experiments were carried out according to the guidelines of Swiss Regulations for Animal Welfare. The preclinical studies were ethically approved by the Cantonal Committee of Animal Experimentation and permitted by the responsible cantonal authorities (license N° 75721 and 79692). Five-week-old female, athymic nude mice (CD-1 Foxn-⅟nu) were obtained from Charles River Laboratories (Sulzfeld, Germany). Mice were subcutaneously inoculated with AR42J tumor cells (5 × 10^6 cells in 100 µL PBS) for SPECT/CT imaging, biodistribution and therapy studies. The SPECT/CT and biodistribution studies were performed 10-14 days after tumor cell inoculation when the tumor size reached a volume of ~250 mm^3.
The mice were sacrificed at 0.5 h, 2 h, 4 h, 24 h and 48 h p.i, selected tissues and organs were collected, weighed, and the accumulated activity was counted using a γ-counter (Perkin Elmer). The decay-corrected data were listed as % IA/g. The data were analyzed for significance using a two-way ANOVA with Tukey’s multiple comparison post-tests. A p-value of <0.05 was considered statistically significant.

[2] = n-octanol/PBS distribution coefficient (logD), shake-flask method; type: physicochemical; conditions: n-octanol/PBS pH 7.4
Experimental: An aliquot of the radiolabeled peptide (0.5 MBq, 25 µL) was added to a mixture of 1475 µL PBS pH 7.4 and 1500 µL n-octanol. The respective tubes were vortexed for 60 sec and centrifuged for 6 min at 2500 rpm followed by the measurement of the activity concentration in a defined volume of each layer using a γ-counter (Perkin Elmer, Wallac Wizard 1480). The logD values were calculated as the logarithm of the ratio of counts per minute (cpm) measured in the n-octanol phase relative to the cpm measured in the PBS pH 7.4 phase. The experiments were performed three times with five replicates for each radiopeptide and the logD value was expressed as the average ± standard deviation (SD) of the values obtained in each experiment. […] A p value <0.05 was considered statistically significant.

[3] = Assessment of early side effects in therapy mice; conditions: endpoint of therapy
Experimental: Early side effects were assessed based on the RBW of each mouse which was monitored every second day. When an endpoint was reached or at the end of the study (after 49 days), relevant organs and tissues were collected, weighed and put into relation to the brain mass and body weight of the respective mouse. This allowed comparison of organ-to-brain and organ-to-body mass weight ratios. In addition, blood plasma parameters from blood collected immediately after euthanasia were measured.
RBW, organ mass and mass ratios at the endpoint: The RBW was monitored every second day. Mice were euthanized when a predefined endpoint criterion was reached or when the study was terminated at Day 49. RBWs, organ masses, organ mass ratios (kidney-to-brain, liver-to-brain and spleen-to-brain) and organ mass to body weight ratios (kidney-to-body mass, liver-to-body mass and spleen-to-body mass) were analyzed for significance using a one-way ANOVA test with a Tukey’s multiple comparisons post-test. A p-value of <0.05 was considered as statistically significant.
Blood plasma chemistry: Immediately before euthanasia of the mice that reached the endpoint, blood was sampled from the retrobulbar vein. The values of creatinine (CRE), blood urea nitrogen (BUN), alkaline phosphatase (ALP), total bilirubin (TBIL) and albumin (ALB) were determined in the plasma after centrifugation of the blood using a dry chemistry analyzer (DRI-CHEM 4000i, FUJIFILM, Japan). The average blood plasma parameters of each group were analyzed for significance using a one-way ANOVA test with a Tukey’s multiple comparisons post-test. A p-value of <0.05 was considered as statistically significant.

[4] = test system: metastatic functional neuroendocrine neoplasm of the pancreatic tail; test: First-in-man scintigraphy and SPECT/CT; type: in vivo, human; conditions: 0.5-113 hours p.i., patient
Experimental: A patient with a metastatic functional neuroendocrine neoplasm of the pancreatic tail was injected with 161TbDOTATOC. Scintigraphy and SPECT were recorded. […] FIGS. 18A, 18B, 18C, and 18D show whole-body images obtained at 0.5 hours post-injection (p.i.) (FIG. 18A), 2.5 hours p.i. (FIG. 18B), 20 hours p.i. (FIG. 18C), and 113 hours p.i. (FIG. 18D) of 161Tb-DOTATOC. Early blood-pool activity was noticed in the heart (H) and blood vessels (BV).
FIGS. 19A, 19B, and 19C show SPECT/CT images obtained at 19 hours after injection of 161Tb-DOTATOC. (FIG. 19A) Coronal section, (FIG. 19B) sagittal section, and (FIG. 19C) transverse section.

AR42J tumor-bearing mice [5] = test: Biodistribution: optimum injected molar amount; conditions: 2 h p.i.
AR42J tumor-bearing mice [6] = conditions: 24 h p.i., 1 nmol/mouse
Experimental: (§1) Five-week-old female, athymic nude mice (CD-1 Foxn-⅟nu) were obtained from Charles River Laboratories (Sulzfeld, Germany). Mice were subcutaneously inoculated with AR42J tumor cells (5 × 10^6 cells in 100 µL PBS) for SPECT/CT imaging, biodistribution and therapy studies. The SPECT/CT and biodistribution studies were performed 10-14 days after tumor cell inoculation when the tumor size reached a volume of ~250 mm^3.
(§2) The mice were sacrificed at 2 h and 24 h post injection (p.i.). Selected tissues and organs were collected, weighed, and the accumulated activity was counted in a γ-counter. The decay-corrected data were listed as the percentage of the injected activity per gram of tissue mass (% IA/g). The data were analyzed for significance using a two-way ANOVA with Tukey’s multiple comparison post-tests. A p-value of <0.05 was considered statistically significant.

in vivo = conditions: female, athymic nude (CD-1 Foxn-1nu), mouse, iv, 1 nmol/mouse, total radioactivity
Experimental: as §1, §2

SMILES: C[C@@H](O)[C@@H]1NC(=O)[C@H](CCCCN)NC(=O)[C@@H](Cc2c[nH]c3ccccc23)NC(=O)[C@H](Cc2ccc(O)cc2)NC(=O)[C@@H](NC(=O)[C@@H](Cc2ccccc2)NC(=O)CN2CCN(CC(=O)O)CCN(CC(=O)O)CCN(CC(=O)O)CC2)CSSC[C@@H](C(=O)N[C@H](CO)[C@@H](C)O)NC1=O [[^161Tb]Tb-DOTATOC] [metal not drawn]
- Median survival (AR42J tumors; 2 x 10 MBq, 0.2 nmol): 21 days
- tumor growth delay (AR42J tumors; 2 x 10 MBq, 0.2 nmol, Day 0 and 7): 9.0 ± 5.5 days
- Time frame of euthanasia (AR42J tumors; 2 x 10 MBq, 0.2 nmol, end of study = 49 days): 20 to 26 days
- tumor doubling time (AR42J tumors; regrowth phase): 3.4 ± 3.6 days
- Biodistribution: AR42J Tumor (AR42J tumor-bearing mice [1]; 0.5 h p.i.): 15 ± 2 % IA/g
- Biodistribution: AR42J Tumor (AR42J tumor-bearing mice [1]; 2 h p.i.): 14 ± 1 % IA/g
- Biodistribution: Adrenals (AR42J tumor-bearing mice [1]; 2 h p.i.): 0.43 ± 0.11 % IA/g
- Biodistribution: Femur (AR42J tumor-bearing mice [1]; 2 h p.i.): 0.12 ± 0.03 % IA/g
- Biodistribution: Heart (AR42J tumor-bearing mice [1]; 2 h p.i.): ≤0.10 % IA/g
- Biodistribution: Intestines (AR42J tumor-bearing mice [1]; 2 h p.i.): 0.24 ± 0.01 % IA/g
- Biodistribution: Kidneys (AR42J tumor-bearing mice [1]; 2 h p.i.): 9.4 ± 0.4 % IA/g
- Biodistribution: Liver (AR42J tumor-bearing mice [1]; 2 h p.i.): 0.19 ± 0.03 % IA/g
- Biodistribution: Lung (AR42J tumor-bearing mice [1]; 2 h p.i.): 0.47 ± 0.05 % IA/g
- Biodistribution: Muscle (AR42J tumor-bearing mice [1]; 2 h p.i.): ≤0.10 % IA/g
- Biodistribution: Pancreas (AR42J tumor-bearing mice [1]; 2 h p.i.): 1.5 ± 0.2 % IA/g
- Biodistribution: Spleen (AR42J tumor-bearing mice [1]; 2 h p.i.): 0.18 ± 0.02 % IA/g
- LogD [2]: -3.3 ± 0.2
- ALB (albumin) [3]: 23 ± 2 g/L
- ALP (alkaline phosphatase) [3]: 76 ± 21 U/L
- BUN (blood urea nitrogen) [3]: 5.8 ± 1.0 mmol/L
- CRE (plasma creatinine) [3]: <18 (n=6) µmol/L
- TBIL (total bilirubin) [3]: < 3 µmol/L and 4 ± 1 µmol/L
- uptake in whole-body scintigraphy [4]: Pathological uptake was demonstrated in the bilobar liver
- Tu-to-adr (tumor-to-adrenals) (AR42J tumor-bearing mice [5]; 0.040 nmol/mouse): 24 ± 1
- Tu-to-blood (AR42J tumor-bearing mice [5]; 0.040 nmol/mouse): 187 ± 12
- Tu-to-kidney (AR42J tumor-bearing mice [5]; 0.040 nmol/mouse): 1.8 ± 0.2
- Tu-to-liver (AR42J tumor-bearing mice [5]; 0.040 nmol/mouse): 73 ± 3 and 74 ± 3
- Tu-to-adr (tumor-to-adrenals) (AR42J tumor-bearing mice [5]; 0.20 nmol/mouse): 34 ± 7
- Tu-to-blood (AR42J tumor-bearing mice [5]; 0.20 nmol/mouse): 221 ± 56
- Tu-to-kidney (AR42J tumor-bearing mice [5]; 0.20 nmol/mouse): 1.5 ± 0.1
- Tu-to-liver (AR42J tumor-bearing mice [5]; 0.20 nmol/mouse): 76 ± 14
- Biodistribution: AR42J Tumor (AR42J tumor-bearing mice [5]; 1.0 nmol/mouse): 8.2 ± 0.2 % IA/g
- Biodistribution: Adrenals (AR42J tumor-bearing mice [5]; 1.0 nmol/mouse): 0.25 ± 0.06 % IA/g
- Biodistribution: Blood (AR42J tumor-bearing mice [5]; 1.0 nmol/mouse): ≤0.10 % IA/g
- Biodistribution: Femur (AR42J tumor-bearing mice [5]; 1.0 nmol/mouse): ≤0.10 % IA/g
- Biodistribution: Heart (AR42J tumor-bearing mice [5]; 1.0 nmol/mouse): ≤0.10 % IA/g
- Biodistribution: Intestines (AR42J tumor-bearing mice [5]; 1.0 nmol/mouse): 0.21 ± 0.13 % IA/g
- Biodistribution: Kidneys (AR42J tumor-bearing mice [5]; 1.0 nmol/mouse): 9.9 ± 1.3 % IA/g
- Biodistribution: Liver (AR42J tumor-bearing mice [5]; 1.0 nmol/mouse): 0.17 ± 0.01 % IA/g
- Biodistribution: Lung (AR42J tumor-bearing mice [5]; 1.0 nmol/mouse): 0.27 ± 0.03 % IA/g
- Biodistribution: Muscle (AR42J tumor-bearing mice [5]; 1.0 nmol/mouse): ≤0.10 % IA/g
- Biodistribution: Pancreas (AR42J tumor-bearing mice [5]; 1.0 nmol/mouse): 0.71 ± 0.07 % IA/g
- Biodistribution: Spleen (AR42J tumor-bearing mice [5]; 1.0 nmol/mouse): 0.11 ± 0.02 % IA/g
- Biodistribution: Stomach (AR42J tumor-bearing mice [5]; 1.0 nmol/mouse): 0.74 ± 0.38 % IA/g

SMILES: CC(O)C1NC(=O)C(CCCCN)NC(=O)C(Cc2ccc(NC(N)=O)cc2)NC(=O)C(Cc2ccc(O)cc2)NC(=O)C(NC(=O)C(Cc2ccc(Cl)cc2)NC(=O)CN2CCN(CC(=O)O)CCN(CC(=O)O)CCN(CC(=O)O)CC2)CSSCC(C(=O)NC(Cc2ccc(O)cc2)C(N)=O)NC1=O (centres unmarked) [metal not drawn] ({DOTA}-[Phe(4-Cl)]CY[X1]KTCY-NH2; disulfide 2-7; configuration not given here)
- Tumor-to-liver (AR42J tumor-bearing mice [6]): 63 ± 18
- Biodistribution: Muscle (AR42J tumor-bearing mice [1]; 2 h p.i.): ≤0.10 % IA/g
- Biodistribution: Spleen (AR42J tumor-bearing mice [1]; 2 h p.i.): 0.41 ± 0.08 % IA/g
- tissue uptake at 2 h (in vivo; femur): 0.2 ± 0.05 %ID/g
- tissue uptake at 2 h (in vivo; kidneys): 12 ± 2 %ID/g
- tissue uptake at 2 h (in vivo; lung): 1 ± 0.2 %ID/g
- tissue uptake at 24 h (in vivo; spleen): 0.13 ± 0.03 %ID/g
- ALB (albumin) [3]: 22 ± 1 g/L
- ALP (alkaline phosphatase) [3]: 65 ± 15 U/L
- BUN (blood urea nitrogen) [3]: 9.1 ± 1.5 mmol/L
- CRE (plasma creatinine) [3]: <18 (n=5) 18 (n=1) µmol/L
- TBIL (total bilirubin) [3]: <3 (n=5) 3 (n=1) µmol/L
